Experimental data reported in patent US20250043026A1 (SHANGHAI BAO PHARMACEUTICALS, published 2025).
Residue numbers refer to the chain shown, from its start.

Key:
[1] = molecular target: T1, FcγRIIa-131H (Acro Biosystems) (UniProt P12318 36-218, limits assumed); test: BLI (Fortebio), FcγR loaded on HIS1K probe, pH 7.0
T1 construct: The 131H/R allotypes are those of the human receptor
T1 sequence (looked up): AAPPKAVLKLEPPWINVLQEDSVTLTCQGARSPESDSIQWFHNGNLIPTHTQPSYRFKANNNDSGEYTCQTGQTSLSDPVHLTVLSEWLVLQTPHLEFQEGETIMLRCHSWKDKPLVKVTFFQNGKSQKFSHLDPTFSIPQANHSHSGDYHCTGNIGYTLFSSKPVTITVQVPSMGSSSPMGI
Procedure: (§1) The variant proteins were tested for affinity to FcγRI, FcγRIIa-131H, FcγRIIa-131R, FcγRIIb, FcγRIIIa-158F, FcγRIIIa-158V at pH 7.0. The affinity of the antibody fragment for the receptor was determined using Fortebio. Different FcγR (Acro Biosystems) was loaded at 0.5 nm with an HIS1K probe, bound to the variant protein at various concentrations for 60 seconds and dissociated for 60 seconds.

[2] = molecular target: T2, FcγRIIb (Acro Biosystems) (UniProt P31994 46-217, limits assumed); test: BLI (Fortebio), FcγR loaded on HIS1K probe, pH 7.0
T2 sequence (looked up): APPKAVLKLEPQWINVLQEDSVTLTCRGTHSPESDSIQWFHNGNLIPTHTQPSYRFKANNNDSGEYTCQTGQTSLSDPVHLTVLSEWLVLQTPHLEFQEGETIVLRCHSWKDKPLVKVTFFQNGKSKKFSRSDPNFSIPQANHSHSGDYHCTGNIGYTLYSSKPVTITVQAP
Procedure: as §1

FcγRI (Acro Biosystems) [3] = molecular target: T3, FcγRI (Acro Biosystems) (UniProt P12314 16-288, limits assumed); test: BLI (Fortebio), FcγR loaded on HIS1K probe, pH 7.0
T3 construct: also called CD64
T3 sequence (P12314 16-288 limits assumed): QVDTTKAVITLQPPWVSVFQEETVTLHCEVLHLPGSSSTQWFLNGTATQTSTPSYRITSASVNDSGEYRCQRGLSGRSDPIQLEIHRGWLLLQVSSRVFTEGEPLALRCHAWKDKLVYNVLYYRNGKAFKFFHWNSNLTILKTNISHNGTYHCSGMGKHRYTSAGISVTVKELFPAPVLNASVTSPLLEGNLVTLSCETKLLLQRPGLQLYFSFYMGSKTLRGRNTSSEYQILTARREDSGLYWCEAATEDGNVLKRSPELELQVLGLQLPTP
Procedure: as §1

[4] = molecular target: T4, FcγRIIIa-158F (Acro Biosystems) (UniProt P08637 17-208); test: BLI (Fortebio), FcγR loaded on HIS1K probe, pH 7.0
T4 construct: The 158V/F allotypes are those of the human receptor
T4 sequence (P08637 17-208 limits assumed): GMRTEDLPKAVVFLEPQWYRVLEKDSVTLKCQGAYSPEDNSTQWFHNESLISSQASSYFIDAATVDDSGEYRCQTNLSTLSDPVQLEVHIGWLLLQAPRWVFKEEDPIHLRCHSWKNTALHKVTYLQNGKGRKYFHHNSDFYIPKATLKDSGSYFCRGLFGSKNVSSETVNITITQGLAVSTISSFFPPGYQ
Procedure: as §1

[5] = molecular target: T5, FcγRIIIa-158V (Acro Biosystems) (UniProt P08637 17-208); test: BLI (Fortebio), FcγR loaded on HIS1K probe, pH 7.0
T5 construct: The 158V/F allotypes are those of the human receptor
T5 sequence (P08637 17-208 F176V limits assumed): as the sequence (P08637 17-208 limits assumed) above, with F160V counted along it
Procedure: as §1

[6] = molecular target: T6, FcγRIIa-131R (Acro Biosystems) (UniProt P12318 36-218, limits assumed); test: BLI (Fortebio), FcγR loaded on HIS1K probe, pH 7.0
T6 construct: The 131H/R allotypes are those of the human receptor
T6 sequence (looked up): T1 sequence (looked up) with H132R
Procedure: as §1

FcRn (Acro Biosystems) = FcRn (Acro Biosystems) (human, UniProt P55899 24-297; P61769 21-119); test: BLI (Fortebio), FcRn loaded on HIS1K probe, pH 7.0
Sequence of FcRn (Acro Biosystems) (P55899 24-297 limits assumed, chain 1 of 2): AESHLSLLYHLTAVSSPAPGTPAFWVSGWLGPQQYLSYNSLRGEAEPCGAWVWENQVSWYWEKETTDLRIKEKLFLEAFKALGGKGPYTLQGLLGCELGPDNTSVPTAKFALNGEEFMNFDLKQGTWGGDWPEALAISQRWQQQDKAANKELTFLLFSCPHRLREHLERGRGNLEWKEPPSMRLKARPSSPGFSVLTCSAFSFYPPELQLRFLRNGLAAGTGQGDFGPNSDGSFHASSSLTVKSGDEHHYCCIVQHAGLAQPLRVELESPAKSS
Sequence of FcRn (Acro Biosystems) (P61769 21-119 limits assumed, chain 2 of 2): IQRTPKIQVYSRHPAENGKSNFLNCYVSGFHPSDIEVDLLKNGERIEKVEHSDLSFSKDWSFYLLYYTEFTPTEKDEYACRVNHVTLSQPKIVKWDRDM
Procedure: The variant proteins were tested for affinity to FcRn at pH 7.0. The affinity of the antibody fragment for the receptor was determined using Fortebio. FcRn (Acro Biosystems) was loaded at 0.8 nm with an HIS1K probe, bound to the variant protein at various concentrations for 60 seconds and dissociated for 300 seconds.

FcγRI (Acro Biosystems) [7] = molecular target: T3, FcγRI (Acro Biosystems); test: BLI (Fortebio), ratio of KD against m1
Procedure: as §1

[8] = molecular target: T1, FcγRIIa-131H (Acro Biosystems); test: BLI (Fortebio), ratio of KD against m1
Procedure: as §1

[9] = molecular target: T2, FcγRIIb (Acro Biosystems); test: BLI (Fortebio), ratio of KD against m1
Procedure: as §1

[10] = molecular target: T4, FcγRIIIa-158F (Acro Biosystems); test: BLI (Fortebio), ratio of KD against m1
Procedure: as §1

[11] = molecular target: T5, FcγRIIIa-158V (Acro Biosystems); test: BLI (Fortebio), ratio of KD against m1
Procedure: as §1

[12] = molecular target: T6, FcγRIIa-131R (Acro Biosystems); test: BLI (Fortebio), ratio of KD against m1
Procedure: as §1

B1: Fc variant m1 (other)
chain: DKTHTCPPCPAPELLGGPSVFLFPPKPKDTLYITREPEVTCVVVDVSHEDPEVKFNWYVDGVEVHNAKTKPREEQYNSTYRVVSVLTVLHQDWLNGKEYKCKVSNKALPAPIEKTISKAKGQPREPQVYTLPPSRDELTKNQVSLTCLVKGFYPSDIAVEWESNGQPENNYKTTPPVLDSDGSFFLYSKLTVDKSRWQQGNVFSCSVMHEALKFHYTQKSLSLSP
modifications: N-glycan with 2,6-sialic acid (variant co-expressed with human GT and ST in ExpiCHO-S cells)
notes: also called control m1
With B1 the Kd [1] was 2560 nM, the Kd [2] was 10700 nM and the Kd (FcγRI (Acro Biosystems) [3]) was 316 nM. The Kd [4] was 7210 nM, the Kd [5] was 1710 nM and the Kd [6] was 2050 nM. For the same binder, the kon (FcRn (Acro Biosystems)) was 214000 M⁻¹ s⁻¹.

B2: Fc variant m3 (other)
chain: B1 chain with F21A
modifications: N-glycan with 2,6-sialic acid (variant co-expressed with human GT and ST in ExpiCHO-S cells)
notes: Fc fragment variant of IgG1
Binder B2 has a kon (FcRn (Acro Biosystems)) of 272000 M⁻¹ s⁻¹.

B3: Fc variant m8 (other)
chain: B1 chain with Y76A
notes: Fc fragment variant of IgG1, co-expressed with human GT and ST
In the case of B3, the kon (FcRn (Acro Biosystems)) is reported as 115000 M⁻¹ s⁻¹.

B4: Fc variant m4 (other)
chain: B1 chain with F23A
modifications: N-glycan with 2,6-sialic acid (variant co-expressed with human GT and ST in ExpiCHO-S cells)
notes: Fc fragment variant of IgG1
B4 was tested, and the kon (FcRn (Acro Biosystems)) was 298000 M⁻¹ s⁻¹.

B5: Fc variant m9 (other)
chain: B1 chain with Y76N, N77A
notes: as for B3
B5 showed a kon (FcRn (Acro Biosystems)) of 208000 M⁻¹ s⁻¹.

B6: Fc variant m7 (other)
chain: B1 chain with V44E
modifications: N-glycan with 2,6-sialic acid (variant co-expressed with human GT and ST in ExpiCHO-S cells)
notes: Fc fragment variant of IgG1
In the case of B6, the Kd (FcγRI (Acro Biosystems) [3]) is reported as 63.8 nM, the kon (FcRn (Acro Biosystems)) is reported as 221000 M⁻¹ s⁻¹ and the “Fold change of m7 relative to m1” value (FcγRI (Acro Biosystems) [7]) is reported as 4.95 fold.

B7: Fc variant m6 (other)
chain: B1 chain with V44A
modifications: N-glycan with 2,6-sialic acid (variant co-expressed with human GT and ST in ExpiCHO-S cells)
notes: Fc fragment variant of IgG1
B7 gave a Kd [1] of 2560 nM, a Kd [2] of 6820 nM and a Kd (FcγRI (Acro Biosystems) [3]) of 319 nM. The Kd [4] was 9670 nM, the Kd [5] was 1760 nM and the Kd [6] was 1400 nM. The kon (FcRn (Acro Biosystems)) was 212000 M⁻¹ s⁻¹, the “Fold change of m6 relative to m1” value [8] was 1 fold and the “Fold change of m6 relative to m1” value [9] was 1.57 fold. For the same binder, the “Fold change of m6 relative to m1” value (FcγRI (Acro Biosystems) [7]) was 0.99 fold, the “Fold change of m6 relative to m1” value [10] was 0.75 fold and the “Fold change of m6 relative to m1” value [11] was 0.97 fold. The “Fold change of m6 relative to m1” value [12] was 1.46 fold.

B8: Fc variant m10 (other)
chain: B1 chain with S78N, T79A, Y80S
notes: as for B3
B8 was tested, and the kon (FcRn (Acro Biosystems)) was 221000 M⁻¹ s⁻¹.

B9: Fc variant m11 (other)
chain: B1 chain with Y80A
modifications: N-glycan with 2,6-sialic acid (variant co-expressed with human GT and ST in ExpiCHO-S cells)
notes: Fc fragment variant of IgG1
Work on B9 yielded a kon (FcRn (Acro Biosystems)) of 38300 M⁻¹ s⁻¹.

B10: Fc variant m5 (other)
chain: DKTHTCPPCPAPELLGGPSVFLFPPKPKDTLYITREPEVTCVVVDVSHEDPEVKFNWYVDGVEVHNAKTKPREQYNSTYRVVSVLTVLHQDWLNGKEYKCKVSNKALPAPIEKTISKAKGQPREPQVYTLPPSRDELTKNQVSLTCLVKGFYPSDIAVEWESNGQPENNYKTTPPVLDSDGSFFLYSKLTVDKSRWQQGNVFSCSVMHEALKFHYTQKSLSLSP
modifications: N-glycan with 2,6-sialic acid (variant co-expressed with human GT and ST in ExpiCHO-S cells)
notes: Fc fragment variant of IgG1
Binder B10 has a kon (FcRn (Acro Biosystems)) of 347000 M⁻¹ s⁻¹.
